Data taken from article PMC3112443.

Experiments:
[1] = supernatant titer on PFVL luciferase indicator cells; conditions: glycan lost; control: wild type
[2] = non-reducing Western blot; conditions: glycan lost; control: wild type

B1: human tetherin (HuTHN; BST-2, CD317, HM1.24): N65/92A (protein)
parent chain: MASTSYDYCRVPMEDGDKRCKLLLGIGILVLLIIVILGVPLIIFTIKANSEACRDGLRAVMECRNVTHLLQQELTEAQKGFQDVEAQAATCNHTVMALMASLDAEKAQGQKKVEELEGEITTLNHKLQDASAEVERLRRENQVLSVRIADKKYYPSSQDSSSAAAPQLLIVLLGLSALLQ
For B1, the “other: inhibition of virus release” value [1] was “no change” and the oligomerisation [2] was “no change”.
